The values below come from patent publication US20090155250A1 (US Dept. of Health and Human Services, published 2009).

Experiment [1] deals with T1, BSA (UniProt P02769 25-607).
T1 construct: Unrelated control protein
The experiment can be described thus: ELISA, wells coated with the unrelated protein, IgG titrated. (In an ELISA, binding on a coated surface is turned into a signal by an enzyme label.)

In experiment [2] the target is T1, BSA. The experiment can be described thus: ELISA, protein coated on wells.

T1 sequence (P02769 25-607 limits assumed): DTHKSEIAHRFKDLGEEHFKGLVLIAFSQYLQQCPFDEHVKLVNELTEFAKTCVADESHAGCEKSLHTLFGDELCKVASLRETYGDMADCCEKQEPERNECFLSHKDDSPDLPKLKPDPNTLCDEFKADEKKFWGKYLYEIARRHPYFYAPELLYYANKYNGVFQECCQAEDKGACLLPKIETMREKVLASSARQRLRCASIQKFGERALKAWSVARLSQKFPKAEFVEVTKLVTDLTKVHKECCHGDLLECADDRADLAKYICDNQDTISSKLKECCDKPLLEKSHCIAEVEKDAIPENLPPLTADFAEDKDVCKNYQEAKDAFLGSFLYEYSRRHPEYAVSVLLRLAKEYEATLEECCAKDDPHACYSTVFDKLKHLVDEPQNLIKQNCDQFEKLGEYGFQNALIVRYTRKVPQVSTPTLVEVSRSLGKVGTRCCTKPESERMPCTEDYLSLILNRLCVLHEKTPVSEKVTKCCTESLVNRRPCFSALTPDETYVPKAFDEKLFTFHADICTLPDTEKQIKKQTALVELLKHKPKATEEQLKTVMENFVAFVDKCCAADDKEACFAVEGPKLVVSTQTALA

B1: chimpanzee/human anti-B5 MAb 8AH8AL (antibody, V domains shown)
VH: EVQLLESGGGLIKPGGSLRLSCAASGFIFRDYNINWVRQAPGKGLEWLGFIRTRASGRSTEYSASVKGRFTISRDDSKNIAYLHINSLKMEDTAVYYCAKKGDSYYYMDFWGKGTAVTVS
VL: ELALTQPASVSGSPGQSITISCTGGRSDLGDSNFVSWYQQYPGKAPKLLIYQVNKRPSGVPDRFSASKSANTASLTISGLQTEDEADYFCSSYTTTSTYVFGIGTKVVVLG
notes: also called anti-B5 8AH8AL; Anti-B5 8AH8AL
For B1, the binding result with BSA [1] is on record as “no binding (tested: 10^4 ng/ml)”.

B2: chimpanzee/human anti-B5 MAb 8AH7AL (antibody, V domains shown)
VH: EVQLLESGGGLIKPGGSLRLSCAASGFIFRDYNINWVRQAPGKGLEWLGFIRTRASGRSTEYSASVKGRFTISRDDSKNIAYLHINSLKMEDTAVYYCAKKGDSYYYMDFWGKGTAVTVS
VL: ELALTQPPSVSGSPGQSITISCTGTSSDVGGHNGVSWYQQYPGKAPKVMIYEVNKRPSGVSNRLSGSKSGNTASLTISGLQAEDEGDYYCSSYRNGGSVVFGGGTKLTVLG
notes: also called anti-B5 8AH7AL
In the case of B2, in the experiment with BSA [2], the binding result is “no binding”.
